Source: the supplement of paper PMC10724198
± gives the standard deviation of the averaged measurements.

system: Saccharomyces cerevisiae; assay: protein stability index of tFT-peptide fusion (C-terminal peptide) (PSI (0-1 scale)); higher = more stable (slower turnover); conditions: genetic background: wild type; temperature: 30 C
Procedure: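 Multiplexed protein stability (MPS) profiling in S. cerevisiae. Random 12-aa peptides (tFT-X12 library) are fused to the C-terminus of a sfGFP-mCherry tandem fluorescent timer, after mCherry and a GGGS linker. Cells are FACS-sorted into 8 mCherry/sfGFP bins and deep-sequenced. The protein stability index (PSI) is the read-weighted bin average, scaled from 0 (unstable) to 1 (stable). Only peptides with >10 reads are reported; cells were grown at 30 °C in SC-His with glucose.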
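Also: PSI is a weighted mean of sequencing reads over stability bins, variants kept only with over 10 reads, mCherry proximal and sfGFP distal, peptide attached via GGGS linker.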

Sequence	protein stability index
ASSLHFLYLPAL	0.709 ± 0.062
ASTTSYNITLEC	0.679 ± 0.17
ASVLSTQDPGEY	0.676 ± 0.055
ASVWSLPSIVLT	0.519 ± 0.074
ASWEARGWLGWA	0.794 ± 0.05
ATGGGSFKRRVS	0.53 ± 0.014
ATGHQMTMYDNR	0.708 ± 0.069
ATHISCRRNRLY	0.57 ± 0.039
ATLVRTTWSCHG	0.669 ± 0.014
ATMGRKSLRDRF	0.679 ± 0.012
ATSCLPLPSCPG	0.726 ± 0.019
ATSSNFGVWVHV	0.69 ± 0.048
AVACGGASGCGC	0.707 ± 0.071
AVCWGGSVGGVG	0.69898 ± 0.00012
AVEGVSEVSLSG	0.656 ± 0.019
AVGQGAGSWGWE	0.691 ± 0.049
AVGRGGVGAEGA	0.65 ± 0.011
AVGWGGLKGRVG	0.7 ± 0.037
AVKMLGRGLVLV	0.624 ± 0.032
AVPLFRSVSRTS	0.667 ± 0.11
AVPSLYLLPFSF	0.69 ± 0.037
AVRFISRLPPPA	0.686 ± 0.078
AVSPISLSDNIG	0.664 ± 0.018
AVSRSLTGVRFL	0.697 ± 0.025
AVTAFDMGGSRN	0.672 ± 0.12

Sequence	protein stability index
AVVSRVPRLFRL	0.724 ± 0.045
AVVYIRVEVPGA	0.498 ± 0.017
AVWLEAVSVSLS	0.612 ± 0.012
AVWRVSGPFTDA	0.685 ± 0.071
AVYSDCARNITW	0.714 ± 0.047
AWFIRSLVAYFL	0.545 ± 0.017
AWGLDGCQLCFS	0.751 ± 0.11
AYLNPFTSALTA	0.616 ± 0.028
AYTWVMTGAWLL	0.586 ± 0.015
CAAIHFLLPTYP	0.69 ± 0.054
CAAYIQNLPFPF	0.727 ± 0.019
CAEGMCCCRGVG	0.56 ± 0.013
CAGGLFAVVTPS	0.682 ± 0.043
CARAGLGFRWVG	0.621 ± 0.031
CARPVLSAGSWQ	0.673 ± 0.065
CCFAGFAVWSVD	0.7 ± 0.019
CCLLYPAVYTTQ	0.62 ± 0.046
CCPLRLPRSRGY	0.705 ± 0.055
CCSWPSRLLLEG	0.722 ± 0.026
CCVVFMGLGGGR	0.673 ± 0.0085
CCYSSLRLMSFL	0.536 ± 0.014
CDDIIKGEIRIM	0.722 ± 0.041
CDFYGCAPAPRL	0.7945 ± 0.0077
CDHLSLCDDLFA	0.753 ± 0.065
CDQVSDGSMGTV	0.634 ± 0.04

Sequence	protein stability index
CDTIPNPLYKYD	0.75 ± 0.055
CDYAWSSSASLG	0.56 ± 0.017
CECANLIAHFCV	0.6253 ± 0.0059
CECVGGFGFLGS	0.682 ± 0.031
CEITISQEQSAS	0.624 ± 0.022
CFGFRVFGFVFF	0.561 ± 0.075
CFGGGVGWFPLG	0.698 ± 0.0076
CFGSRDSSFGHT	0.763 ± 0.13
CFLIFQRSWLFR	0.576 ± 0.066
CFNGRVGGGGMR	0.636 ± 0.086
CFPALSSRTFPS	0.7521 ± 0.0047
CFPPVGPTSPTI	0.745 ± 0.022
CFSFLEYCTSLP	0.704 ± 0.012
CGEGVCVTGWSR	0.68 ± 0.028
CGFGVSHASRIF	0.78 ± 0.012
CGGAKLPEQCQK	0.6813 ± 0.0022
CGLCDISFDLVM	0.626 ± 0.027
CGLSAGIVLFFC	0.58 ± 0.012
CGQEQGCEGAVD	0.658 ± 0.12
CGRERIEGGGGD	0.643 ± 0.1
CGRPPPLFAFIP	0.701 ± 0.037
CGTPWHSITCSA	0.55 ± 0.012
CGTYPTFCGLGV	0.68 ± 0.068
CGVCRGSCGGYG	0.583 ± 0.016
CGVCSAGIFVGG	0.761 ± 0.026

Sequence	protein stability index
CGVFAGRVGVRV	0.6003 ± 0.0017
CGVMLFGLGCLW	0.6321 ± 0.00042
CGVSRIGLAGDV	0.671 ± 0.039
CGWIQYSVSHDL	0.712 ± 0.059
CHNVIEKIRNNK	0.657 ± 0.1
CHPFGLPFMLEF	0.721 ± 0.026
CHSIEGSEPREA	0.694 ± 0.085
CIATINKMTRRI	0.67 ± 0.11
CIRSRHRRQSKG	0.67 ± 0.088
CISPPRHAPPPP	0.637 ± 0.092
CKCKLNKKTTKS	0.701 ± 0.05
CKEGLGSGRWGR	0.717 ± 0.018
CKKGVEIIEREK	0.632 ± 0.026
CLCLTCMLDFYL	0.553 ± 0.0092
CLEEVVCRVRGA	0.643 ± 0.0096
CLFPVSLPCPTN	0.714 ± 0.018
CLGPTVYGRSTF	0.728 ± 0.025
CLICLRSRMGDC	0.642 ± 0.024
CLIGYFPYRLVL	0.502 ± 0.025
CLLCLPPPRSLS	0.69 ± 0.034
CLPLFISPFLLG	0.677 ± 0.0068
CLPPPARLPAPR	0.683 ± 0.033
CLSGLIIMPSVG	0.675 ± 0.035
CLSPSSHLPSVT	0.685 ± 0.021
CLTGSVLVICGN	0.551 ± 0.06

Sequence	protein stability index
CLVDSSSFSLIF	0.742 ± 0.065
CLVGWAVAVLGD	0.458 ± 0.068
CLVIDDPFLVPF	0.6988 ± 0.001
CLVRIIRREIKG	0.575 ± 0.018
CMCFFMGGWWCV	0.608 ± 0.0067
CMFPVSHRLLYL	0.615 ± 0.047
CMGRCGVCCERS	0.711 ± 0.045
CMWDAVGFALRS	0.72 ± 0.011
CPGNRQEMLKSR	0.676 ± 0.0083
CPLPTAFRSTHV	0.691 ± 0.019
CPRLDVSSGFSW	0.694 ± 0.025
CPTVLWPRSPRN	0.688 ± 0.027
CQPNRKRETRGN	0.732 ± 0.064
CQSARCLPFLLY	0.585 ± 0.026
CQVTDYLVLDWG	0.727 ± 0.038
CQYKRRLKTTET	0.732 ± 0.0085
CRGPRASRRRGR	0.629 ± 0.04
CRHPYTSTTRLA	0.68 ± 0.025
CRKLSIPLRGQS	0.6627 ± 0.0044
CRQCKGTDGDDQ	0.673 ± 0.04
CRSGERSHKMLL	0.63 ± 0.011
CRSRRIVGPDSR	0.669 ± 0.015
CSAALTTLLDFA	0.715 ± 0.018
CSAVVPASARTP	0.606 ± 0.019
CSDRCHNLLLDA	0.705 ± 0.059

Sequence	protein stability index
CSFFNSFPVFWL	0.7 ± 0.014
CSGRDLSLSMAD	0.744 ± 0.13
CSHPHPSSNLPS	0.683 ± 0.045
CSKERAPGPSSG	0.705 ± 0.075
CSLRVSADPLLT	0.7315 ± 0.0071
CSNGRKFKKDDA	0.682 ± 0.059
CSPLIISDATSR	0.713 ± 0.082
CSRGRNSDNNLI	0.631 ± 0.043
CSSLPSRPLLPH	0.7209 ± 0.0062
CSSSALADLLPW	0.6537 ± 0.0022
CSSSLLDSPPAL	0.703 ± 0.048
CSTYPLFPTLPP	0.693 ± 0.049
CTFSGLLEMAGR	0.7253 ± 0.0024
CTGSRPPPDCAV	0.646 ± 0.019
CTHCAGVLLHTL	0.636 ± 0.044
CTKKNGYNGKNT	0.652 ± 0.025
CVARRPSLIGRN	0.655 ± 0.027
CVCLGCGGAFAG	0.696 ± 0.019
CVFAPLFYNVYA	0.585 ± 0.019
CVGILGAVKSGM	0.71 ± 0.098
CVIIDFTLCSVI	0.682 ± 0.14
